# Results published in patent US20120231005A1 (Merck Sharp & Dohme, published 2012).
# Biological target: T1, human PCSK9 (human, UniProt Q8NBP7 31-692, limits assumed)
# Assay: cell-based or functional assay
# T1 sequence (Q8NBP7 31-692 limits assumed): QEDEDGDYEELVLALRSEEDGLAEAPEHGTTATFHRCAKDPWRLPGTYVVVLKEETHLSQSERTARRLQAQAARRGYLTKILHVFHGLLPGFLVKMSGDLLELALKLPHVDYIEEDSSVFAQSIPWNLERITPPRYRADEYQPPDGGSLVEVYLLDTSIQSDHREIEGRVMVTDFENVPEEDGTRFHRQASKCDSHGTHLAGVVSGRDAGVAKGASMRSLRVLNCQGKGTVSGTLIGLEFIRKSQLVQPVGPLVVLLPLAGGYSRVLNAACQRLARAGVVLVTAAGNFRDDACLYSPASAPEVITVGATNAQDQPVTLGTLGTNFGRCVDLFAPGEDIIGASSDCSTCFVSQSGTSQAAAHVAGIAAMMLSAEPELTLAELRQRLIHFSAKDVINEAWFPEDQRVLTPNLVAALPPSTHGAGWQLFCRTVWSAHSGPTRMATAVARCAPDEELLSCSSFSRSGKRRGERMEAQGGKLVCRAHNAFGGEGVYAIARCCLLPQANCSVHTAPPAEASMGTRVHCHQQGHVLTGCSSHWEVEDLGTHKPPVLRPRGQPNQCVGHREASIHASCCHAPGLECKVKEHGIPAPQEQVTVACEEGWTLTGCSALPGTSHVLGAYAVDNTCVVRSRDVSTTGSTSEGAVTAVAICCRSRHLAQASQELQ
row,"Fab IC50 (nM), inhibition of PCSK9 on LDL uptake (Exopolar assay)",Binder
1,146 nM,"AX1 Fab (Fab, V domains shown, Soluble Fab from E. coli TG1 periplasm; Tags encoded by the display vector are not described for the protein) VH: EVQLLESGGGLVQPGGSLRLSCKASGFTFTSYYMHWVRQAPGKGLEWIGRINPDSGSTKYNEKFKGRATISRDNSKNTLYLQMNSLRAEDTAVYYCARGGRLSWDFDVWGQGTLVTVSS VL: DIQMTQSPSSLSASVGDRVTITCRASQDISRYLAWYQQKPGKAPKLLIYAASSLQSGVPSRFSGSGSGTDFTLTISSLQPEDFATYYCAAYDYSLGGYVFGDGTKVEIKR"
2,287 nM,"AX9 Fab (Fab, V domains shown) VH: EVQLLESGGGLVQPGGSLRLSCKASGYTFSSYWMHWVRQAPGKGLEWIGRIDPYNGGTKYNEKFKGKATISRDNSKNTLYLQMNSLRAEDTAVYYCARYGYYLGSYAMDYWGQGTLVTVSS VL: DIQMTQSPSSLSASVGDRVTITCRASQDVSKYLAWYQQKPGKAPKLLIYAASSLQSGVPSRFSGSGSGTDFTLTISSLQPEDFATYYCQVYDSSPNAYVFGGGTKVEIKR"

# Biological target: T1, human PCSK9
# Assay: SPR (Biacore); Fab captured on anti-Fab IgG, PCSK9 injected; 1:1 Langmuir fit
# Experimental: First, goat anti-Fab IgGs were immobilized onto CM5 chip by amine coupling as described above. The anti-Fab IgGs were diluted to 200 μg/ml in pH 5/10 mM Acetate solution, and injected onto the NHS/EDC activated surface to achieve an immobilization level of ˜10,000 RU, followed with surface inactivation by injection of Ethanolamine. […] The sensor chip surface was regenerated by 30 second injection of 100 mM phosphoric acid. The binding sensorgrams were fitted with 1:1 Langmuir binding model to determine the binding affinity.
row,Binder,Kd
1,"AX1 Fab (Fab, V domains shown, Soluble Fab from E. coli TG1 periplasm; Tags encoded by the display vector are not described for the protein) VH: EVQLLESGGGLVQPGGSLRLSCKASGFTFTSYYMHWVRQAPGKGLEWIGRINPDSGSTKYNEKFKGRATISRDNSKNTLYLQMNSLRAEDTAVYYCARGGRLSWDFDVWGQGTLVTVSS VL: DIQMTQSPSSLSASVGDRVTITCRASQDISRYLAWYQQKPGKAPKLLIYAASSLQSGVPSRFSGSGSGTDFTLTISSLQPEDFATYYCAAYDYSLGGYVFGDGTKVEIKR",6 nM
2,"AX9 Fab (Fab, V domains shown) VH: EVQLLESGGGLVQPGGSLRLSCKASGYTFSSYWMHWVRQAPGKGLEWIGRIDPYNGGTKYNEKFKGKATISRDNSKNTLYLQMNSLRAEDTAVYYCARYGYYLGSYAMDYWGQGTLVTVSS VL: DIQMTQSPSSLSASVGDRVTITCRASQDVSKYLAWYQQKPGKAPKLLIYAASSLQSGVPSRFSGSGSGTDFTLTISSLQPEDFATYYCQVYDSSPNAYVFGGGTKVEIKR",23.9 nM
3,"AX422 Fab (Fab, V domains shown, also called AX189_VH 55N to S) VH: EVQLLESGGGLVQPGGSLRLSCKASGYTFSSYWMHWVRQAPGKGLEWIGRIDPYSGGTKYNEKFKGKATISRDNSKNTLYLQMNSLRAEDTAVYYCARYGYYLGSYAMDYWGQGTLVTVSS VL: DIQMTQSPSSLSASVGDRVTITCRASQDVSRYLTWYQQKPGKAPKLLIYAASSLQSGVPSRFSGSGSGTDFTLTISSLQPEDFATYYCQAYDYSLSGYVFGGGTKVEIK",4.1 nM
4,"AX195 Fab (Fab, V domains shown) VH: EVQLLESGGGLVQPGGSLRLSCKASGYTFSSYWMHWVRQAPGKGLEWIGRIDPYNGGTKYNEKFKGKATISRDNSKNTLYLQMNSLRAEDTAVYYCARYGYYLGSYAMDYWGQGTLVTVSS VL: DIQMTQSPSSLSASVGDRVTITCRASQAVSKYLAWYQQKPGKAPKLLIYAASSLQSGVPSRFSGSGSGTDFTLTISSLQPEDFATYYCQAYDYSLGDYVFGGGTKVEIK",9.9 nM
5,"AX193 Fab (Fab, V domains shown) VH: EVQLLESGGGLVQPGGSLRLSCKASGYTFSSYWMHWVRQAPGKGLEWIGRIDPYNGGTKYNEKFKGKATISRDNSKNTLYLQMNSLRAEDTAVYYCARYGYYLGSYAMDYWGQGTLVTVSS VL: DIQMTQSPSSLSASVGDRVTITCRASQAISKYLNWYQQKPGKAPKLLIYAASSLQSGVPSRFSGSGSGTDFTLTISSLQPEDFATYYCESYDYSLGRYVFGGGTKVEIK",7 nM
6,"AX196 Fab (Fab, V domains shown) VH: EVQLLESGGGLVQPGGSLRLSCKASGYTFSSYWMHWVRQAPGKGLEWIGRIDPYNGGTKYNEKFKGKATISRDNSKNTLYLQMNSLRAEDTAVYYCARYGYYLGSYAMDYWGQGTLVTVSS VL: DIQITQSPSSLSASVGDRVTITCRASQDVSRYLAWYQQKPGKAPKLLIYAASSLQSGVPSRFSGSGSGTDFTLTISSLQPEDFATYYCESYDYSLSHYVFGGGTKVEIK",18.3 nM
7,"AX194 Fab (Fab, V domains shown) VH: EVQLLESGGGLVQPGGSLRLSCKASGYTFSSYWMHWVRQAPGKGLEWIGRIDPYNGGTKYNEKFKGKATISRDNSKNTLYLQMNSLRAEDTAVYYCARYGYYLGSYAMDYWGQGTLVTVSS VL: DIQMTQSPSSLSASVGDRVTTTCRASQAVSRYLTWYQQKPGKAPKLLIYAASSLQSGVPSRFSGSGSGTDFTLTISSLQPEDFATYYCQAYDYSLGAYVFGGGTKVEIK",6.1 nM

# The remaining lines, values ahead:
row,Kd,Binder
1,32.8 nM,"AX423 Fab (Fab, V domains shown, also called AX189_VH 56G to T) VH: EVQLLESGGGLVQPGGSLRLSCKASGYTFSSYWMHWVRQAPGKGLEWIGRIDPYNTGTKYNEKFKGKATISRDNSKNTLYLQMNSLRAEDTAVYYCARYGYYLGSYAMDYWGQGTLVTVSS VL: DIQMTQSPSSLSASVGDRVTITCRASQDVSRYLTWYQQKPGKAPKLLIYAASSLQSGVPSRFSGSGSGTDFTLTISSLQPEDFATYYCQAYDYSLSGYVFGGGTKVEIK"
2,6.7 nM,"AX421 Fab (Fab, V domains shown, also called AX189_VH 56G to E) VH: EVQLLESGGGLVQPGGSLRLSCKASGYTFSSYWMHWVRQAPGKGLEWIGRIDPYNEGTKYNEKFKGKATISRDNSKNTLYLQMNSLRAEDTAVYYCARYGYYLGSYAMDYWGQGTLVTVSS VL: DIQMTQSPSSLSASVGDRVTITCRASQDVSRYLTWYQQKPGKAPKLLIYAASSLQSGVPSRFSGSGSGTDFTLTISSLQPEDFATYYCQAYDYSLSGYVFGGGTKVEIK"
3,26.2 nM,"AX199 Fab (Fab, V domains shown) VH: EVQLLESGGGLVQPGGSLRLSCKASGYTFSSYWMHWVRQAPGKGLEWIGRIDPYNGGTKYNEKFKGKATISRDNSKNTLYLQMNSLRAEDTAVYYCARYGYYLGSYAMDYWGQGTLVTVSS VL: DIQMTQSPSSLSASVGDRVTITCRASQSVSNYLHWYQQKPGKAPKLLIYAASSLQSGVPSRFSGSGSGTDFTLTISSLQPEDFATYYCQAYDYSLGPYVFGGGTKVEIK"
4,5.6 nM,"AX197 Fab (Fab, V domains shown) VH: EVQLLESGGGLVQPGGSLRLSCKASGYTFSSYWMHWVRQAPGKGLEWIGRIDPYNGGTKYNEKFKGKATISRDNSKNTLYLQMNSLRAEDTAVYYCARYGYYLGSYAMDYWGQGTLVTVSS VL: DIQMTQSPSSLSASVGDRVTITCRASQAISRYLAWYQQKPGKAPKLLIYAASSLQSGVPSRFSGSGSGTDFTLTISSLQPEDFATYYCQAYDYSLGHYVFGGGTKVEIK"
5,17.6 nM,"AX425 Fab (Fab, V domains shown, also called AX189_VH 55N to D) VH: EVQLLESGGGLVQPGGSLRLSCKASGYTFSSYWMHWVRQAPGKGLEWIGRIDPYDGGTKYNEKFKGKATISRDNSKNTLYLQMNSLRAEDTAVYYCARYGYYLGSYAMDYWGQGTLVTVSS VL: DIQMTQSPSSLSASVGDRVTITCRASQDVSRYLTWYQQKPGKAPKLLIYAASSLQSGVPSRFSGSGSGTDFTLTISSLQPEDFATYYCQAYDYSLSGYVFGGGTKVEIK"
6,4.2 nM,"AX424 Fab (Fab, V domains shown, also called AX189_VH 55N to T) VH: EVQLLESGGGLVQPGGSLRLSCKASGYTFSSYWMHWVRQAPGKGLEWIGRIDPYTGGTKYNEKFKGKATISRDNSKNTLYLQMNSLRAEDTAVYYCARYGYYLGSYAMDYWGQGTLVTVSS VL: DIQMTQSPSSLSASVGDRVTITCRASQDVSRYLTWYQQKPGKAPKLLIYAASSLQSGVPSRFSGSGSGTDFTLTISSLQPEDFATYYCQAYDYSLSGYVFGGGTKVEIK"
7,9.6 nM,"AX200 Fab (Fab, V domains shown) VH: EVQLLESGGGLVQPGGSLRLSCKASGYTFSSYWMHWVRQAPGKGLEWIGRIDPYNGGTKYNEKFKGKATISRDNSKNTLYLQMNSLRAEDTAVYYCARYGYYLGSYAMDYWGQGTLVTVSS VL: DIQMTQSPSSLSASVGDRVTITCRASQDVSKYLAWYQQKPGKAPKLLIYAASSLQSGVPSRFSGSGSGTDFTLTISSLQPEDFATYYCEAYDYSLSHYVFGGGTKVEIK"
8,4.3 nM,"AX198 Fab (Fab, V domains shown) VH: EVQLLESGGGLVQPGGSLRLSCKASGYTFSSYWMHWVRQAPGKGLEWIGRIDPYNGGTKYNEKFKGKATISRDNSKNTLYLQMNSLRAEDTAVYYCARYGYYLGSYAMDYWGQGTLVTVSS VL: DIQMTQSPSSLSASVGDRVTITCRASQAVSSYLNWYQQKPGKAPKLLIYAASSLQSGVPSRFSGSGSGTDFTLTISSLQPEDFATYYCEAYDYSLGGWVFGGGTKVEIK"
